The data set is described as follows: protein stability index of a GFP-peptide fusion (GPS, HEK-293T) (PSI 1-6); higher = more stable. To be noted: c terminus: native.
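Further: lentivirally expressed fusion library, cells FACS-sorted into six equal-sized GFP/DsRed ratio bins, PSI computed from sequencing read fractions per bin weighted by bin number.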

B1: PSMB5 addF (peptide)
chain: DGWIRVSSDNVADLHEKYSGSTPF
Take B1: the protein stability index (parent: NP_002788.1) amounted to 3.79.

B2: POLD2 addF (peptide)
chain: CQPISFSGFGAEDDDLGGLGLGPF
Regarding B2, the protein stability index (parent: NP_006221.1) is 3.13.

B3: BEX2 addF (peptide)
chain: HSLRAVSTDPPHHDHHDEFCLMPF
For B3, the protein stability index (parent: NP_116010.1) was determined as 3.66.

B4: SNF8 addF (peptide)
chain: LPALFTDLYSQEITAEEAREALPF
B4: the protein stability index (parent: NP_009172.2) is 4.24.

B5: TRPA1 addF (peptide)
chain: EQRNSRWNTVLRAVKAKTHHLEPF
Consider B5, for which the protein stability index (parent: NP_015628.1) amounted to 4.28.
